Test results taken from patent US20130097734A1.

What was measured:
Test in all cases: cell-based or functional assay
[1] = molecular target: T1, AVR3a homolog from Phytophthora palmivora designated as L3B (Phytophthora palmivora)
T1 sequence: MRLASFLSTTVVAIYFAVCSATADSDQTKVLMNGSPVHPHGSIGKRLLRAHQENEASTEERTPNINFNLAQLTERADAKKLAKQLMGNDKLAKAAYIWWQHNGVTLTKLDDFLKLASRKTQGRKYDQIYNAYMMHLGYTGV

[2] = molecular target: T2, AVR3a homolog from Phytophthora palmivora designated as L7B (Phytophthora palmivora)
T2 sequence: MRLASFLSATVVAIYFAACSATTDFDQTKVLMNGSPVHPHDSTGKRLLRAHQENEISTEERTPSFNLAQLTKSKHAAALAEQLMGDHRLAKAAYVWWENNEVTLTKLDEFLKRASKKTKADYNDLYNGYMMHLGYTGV

[3] = molecular target: T3, AVR3a homolog from Phytophthora palmivora designated as L6B (Phytophthora palmivora)
T3 sequence: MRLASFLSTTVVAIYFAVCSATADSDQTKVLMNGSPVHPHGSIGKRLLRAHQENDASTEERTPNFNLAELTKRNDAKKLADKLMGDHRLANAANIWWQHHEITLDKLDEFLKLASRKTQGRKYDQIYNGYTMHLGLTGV

[4] = molecular target: AVR3a^KI effector protein of Phytophthora infestans (Phytophthora infestans) (UniProt Q572D3)

B1: wild-type R3a protein (protein)
chain: MEIGLAVGGAFLSSALNVLFDRLAPHGDLLNMFQKHKDHVKLLKKLEDILLGLQIVLSDAENKQASNRHVSQWFNKLQNAVDGAENLIEQVNYEALRLKVEGQHQNLAETSNQQVSDLNLCFSDDFFLNIKDKLEETIETLEVLEKQIGRLGLKEHFGSTKQETRTPSTSLVDDSDIFGRQNDIEDLIDRLLSEDASGKKRTVVPIVGMGGLGKTTLAKAVYNDERVQIHFGLKAWFCVSEAFDAFRITKGLLQEIGSFDLKADDNLNQLQVKLKERLKGKKFLIVLDDVWNDNYNKWDELRNVFVQGDIGSKIIVTTRKESVALMMGNEQISMDNLSTESSWSLFKTHAFENMGPMGHPELEEVGKQIAAKCKGLPLALKTLAGMLRSKSEVEEWKRILRSEIWELPHNDILPALMLSYNDLPAHLKRCFSFCAIFPKDYPFRKEQVIHLWIANGLVPQEDVIIEDSGNQYFLELRSRSLFERVPNPSQGNTENLFLMHDLVNDLAQIASSKLCIRLEESQGSHMLEQSQHLSYSMGYGGEFEKLTPLYKLEQLRTLLPTCIDLPDCCHHLSKRVLHNILPRLTSLRALSLSCYEIVELPNDLFIKLKLLRFLDISRTEIKRLPDSICALYNLETLLLSSCYDLEELPLQMEKLINLRHLDISNTRLLKMPLHLSKLKSLQVLVGAKFLIGGLRMEDLGEVHNLYGSLSVVELQNVVDRREAVKAKMREKNHVDRLYLEWSGSSSADNSQTERDILDELRPHKNIKVVKITGYRGTNFPNWLADPLFLKLVKLSLRNCKNCYSLPALGQLPFLKFLSIREMHGITEVTEEFYGSWSSKKPFNCLEKLEFKDMPEWKQWDLLGSGEFPILEKLLIENCPELSLETVPIQLSSLKSFDVIGSPLVINFPLSILPTTLKRIKISDCQKLKLEQPTGEISMFLEELTLIKCDCIDDISPELLPRARKLWVQDWHNLTRFLIPTATETLDIWNCENVEILSVACGGTQMTSLTIAYCKKLKWLPERMQELLPSLKELHLSNCPEIESFPEGGLPFNLQQLAIRYCKKLVNGRKEWHLQRRLCLTALIIYHDGSDEEIVGGENWELPSSIQRLTIVNLKTLSSQHLKNLTSLQYLFIRGNLPQIQPMLEQGQCSHLTSLQSLQISSLQSLPESALPSSLSHLEISHCPNLQSLPESALPSSLSQLTINNCPNLQSLSESTLPSSLSQLEISFCPNLQYLPLKGMPSSLSELSIYKCPLLKPQLEFDKGEYWPNIAQFPTIKIDRECM
What does the source list for B1?
Cell death/HR intensity, pBIN::35S-R3a, 1dpi [1]: 0; Cell death/HR intensity, pBIN::35S-R3a, 2dpi [1]: 1; Cell death/HR intensity, pBIN::35S-R3a, 3dpi [1]: 2; Cell death/HR intensity, pVnt1-R3a, 1dpi [1]: 0; Cell death/HR intensity, pVnt1-R3a, 2dpi [1]: 0; Cell death/HR intensity, pVnt1-R3a, 3dpi [1]: 0; Cell death/HR intensity, pBIN::35S-R3a, 1dpi [2]: 0; Cell death/HR intensity, pBIN::35S-R3a, 2dpi [2]: 1; Cell death/HR intensity, pBIN::35S-R3a, 3dpi [2]: 1; Cell death/HR intensity, pVnt1-R3a, 1dpi [2]: 0; Cell death/HR intensity, pVnt1-R3a, 2dpi [2]: 1; Cell death/HR intensity, pVnt1-R3a, 3dpi [2]: 1; Cell death/HR intensity, pBIN::35S-R3a, 1dpi [3]: 0; Cell death/HR intensity, pBIN::35S-R3a, 2dpi [3]: 0; Cell death/HR intensity, pBIN::35S-R3a, 3dpi [3]: 0; Cell death/HR intensity, pVnt1-R3a, 1dpi [3]: 0; Cell death/HR intensity, pVnt1-R3a, 2dpi [3]: 0; Cell death/HR intensity, pVnt1-R3a, 3dpi [3]: 0; Cell death/HR intensity, pBIN::35S-R3a, 1dpi [4]: 1; Cell death/HR intensity, pBIN::35S-R3a, 2dpi [4]: 1; Cell death/HR intensity, pBIN::35S-R3a, 3dpi [4]: 2; Cell death/HR intensity, pVnt1-R3a, 1dpi [4]: 2; Cell death/HR intensity, pVnt1-R3a, 2dpi [4]: 3; Cell death/HR intensity, pVnt1-R3a, 3dpi [4]: 4
